Paper PMC8163800, “Extreme parsimony in ATP consumption by 20S complexes in the global disassembly of single SNARE complexes” (Nature Communications, 2021)

B1: NSF-SNAP tag (wild-type NSF with a C-terminal SNAP tag), labelled hexamer (enzyme, Chinese hamster)
chain: MAGRSMQAARCPTDELSLSNCAVVSEKDYQSGQHVIVRTSPNHKYIFTLRTHPSVVPGSVAFSLPQRKWAGLSIGQEIEVALYSFDKAKQCIGTMTIEIDFLQKKNIDSNPYDTDKMAAEFIQQFNNQAFSVGQQLVFSFNDKLFGLLVKDIEAMDPSILKGEPASGKRQKIEVGLVVGNSQVAFEKAENSSLNLIGKAKTKENRQSIINPDWNFEKMGIGGLDKEFSDIFRRAFASRVFPPEIVEQMGCKHVKGILLYGPPGCGKTLLARQIGKMLNAREPKVVNGPEILNKYVGESEANIRKLFADAEEEQRRLGANSGLHIIIFDEIDAICKQRGSMAGSTGVHDTVVNQLLSKIDGVEQLNNILVIGMTNRPDLIDEALLRPGRLEVKMEIGLPDEKGRLQILHIHTARMRGHQLLSADVDIKELAVETKNFSGAELEGLVRAAQSTAMNRHIKASTKVEVDMEKAESLQVTRGDFLASLENDIKPAFGTNQEDYASYIMNGIIKWGDPVTRVLDDGELLVQQTKNSDRTPLVSVLLEGPPHSGKTALAAKIAEESNFPFIKICSPDKMIGFSETAKCQAMKKIFDDAYKSQLSCVVVDDIERLLDYVPIGPRFSNLVLQALLVLLKKAPPQGRKLLIIGTTSRKDVLQEMEMLNAFSTTIHVPNIATGEQLLEALELLGNFKDKERTTIAQQVKGKKVWIGIKKLLMLIEMSLQMDPEYRVRKFLALLREEGASPLDFD
modifications: BG-Alexa647 or BG-DY549 dye on the SNAP tag
notes: N-ethylmaleimide sensitive factor (NSF), Chinese hamster, wild type; also called DY549-labeled NSF; SNAP-tag-labeled WT; source: expressed from pET28a in autoinduction LB medium, purified (Ni-NTA, Superdex 200); not shown: SNAP tag (GGSG linker), C-terminal, kept
B2: SNAP-tag-αSNAP labelled with BG-Alexa647 (natural protein, bovine, UniProt P81125 1-295, looked up)
chain: MDNSGKEAEAMALLAEAERKVKNSQSFFSGLFGGSSKIEEACEIYARAANMFKMAKNWSAAGSAFCQAAHVHLQLQSKHDAATCFVDAGNAFKKADPQEAINCLMRAIEIYTDMGRFTIAAKHHISIAEIYETELVDIEKAIAHYEQSADYYKGEESNSSANKCLLKVAGYAAQLEQYQKAIDIYEQVGTNAMDSPLLKYSAKDYFFKAALCHFCIDMLNAKLAVQKYEELFPAFSDSRECKRIKKLLEAHEEQNVDSYTEAVKEYDSISRLDQWLTTMLLRIKKTIQGDEEDLR
modifications: BG-Alexa647 dye on the SNAP tag
notes: alpha-soluble NSF attachment protein (αSNAP), bovine; also called SNAP-tag-fused αSNAPs; Alexa647-labeled αSNAP; source: expressed in LB medium with IPTG, purified (Ni-NTA, Superdex 200); not shown: SNAP tag (GGSGGSG linker), N-terminal, kept

Key:
[1] = target: the molecule itself; experiment: SEC; Superdex 200 16/600 in NSF buffer (50 mM HEPES pH 7.4, 150 mM NaCl, 1 mM DTT, 1 mM ATP, 1 mM EDTA, 10% glycerol)
[2] = target: B1; experiment: single-molecule fluorescence co-localisation with counting of photobleaching steps (TIRF); SNARE vesicles (1:30,000 protein/lipid) held on NeutrAvidin; 100 nM SNAP-tag-αSNAP, then 1 nM Dylight549-labelled NSF with 1 mM ATP and 1 mM EDTA; H50N50 buffer; details: both partners purified

Row | binding result [2] | Binder | stoichiometry N [1]
1 | – | B1 | 6
2 | binds | B2 | –
